# Laboratory results from the DeepSol protein solubility set.
# Assay: soluble on expression in E. coli; label from the status in PepcDB or PDB records
row,Sequence,soluble on expression in E. coli
1,MSLYVKMMEMGRMIDNCLYCGSATLLSIIHLANGKNAVTCGKCGLTRTIPVPSAEYSEVAEYFENYLLKEKLFRAFSRKLLDFVLSVVQNGRLLEVGCSVGFFLEEAKRAGFSVNGVELNEKAATLSKGKDFDVRNCMLREAGFPSHEFDVVVMSHVLEHIQDLREFLADIKVLLRPGGKVIVSQPTPDGIVPKMQKKKWYGWVPNEHVWHFTPKTLSLVFAENGFDVVKVERNSMYYSLWPSSLRGILVALVARTAAVLGLGDQFYLAATVSEKDSEGHHHHHH,not soluble
2,MPMRLQKSTMCGLYAVLELAANPDRQVSAGDIADKYDISLNHLAKVLRALVRARLIESVRGPGGGYRFAGNPKRVTLLDIIALFEDTGLDLQEAASDDHEESRALHKVLRDIDEIAMTTLRSVSITSLLKVIDTERRKTERGPNGASARHSSAGRA,not soluble
3,TKNWSWTASANAAWQKVRIKNLTLTPGAPSPDTEVGPWIDAYQMQVFSTDYAPYSFYLYKQLYDAETGQPIEGLYADLDGDGEITNKDRYHHHSPAPDWILGFSTSLRYKKWTLSTSLRANIGGYIFNGMAMNTGAWETMSYNDYQLNNLNRSFLDTRFTKRQFLSDHYLENASFLKMDNLQLSYDFGRIYKTIGLHASAMVQNVFTVTKYKGVDPETANGVDTSVYPRPRTYSITIGLNF,not soluble
4,MIGILKKVFDVNQRQIKRMQKTVEQIDALESSIKPLTDEQLKGKTLEFKERLTKGETVDDLLPEAFAVVREAATRVLGMRPYGVQLMGGIALHEGNISEMKTGEGKTLTSTLPVYLNALTGKGVHVVTVNEYLAQRDANEMGQLHEFLGLTVGINLNSMSREEKQEAYAADITYSTNNELGFDYLRDNMVLYKEQCVQRPLHFAIIDEVDSILVDEARTPLIISGQAQKSTELYMFANAFVRTLENEKDYSFDVKTKNVMLTEDGITKAEKAFHIENLFDLKHVALLHHINQALRAHVVMHRDTDYVVQEGEIVIVDQFTGRLMKGRRYSEGLHQAIEAKEGVEIQNESMTLATITFQNYFRMYEKLSGMTGTAKTEEEEFRNIYNMNVIVIPTNKPIIRDDRADLIFKSMKGKFNAVVEDIVNRHKQGQPVLVGTVAIETSELISKMLTRKGVRHNILNAKNHAREADIIAEAGMKGAVTIATNMAGRGTDIKLGDDIKNIGLAVIGTERHESRRIDNQLRGRAGRQGDPGVTQFYLSMEDELMRRFGSDNMKAMMDRLGMDDSQPIESKMVSRAVESAQKRVEGNNYDARKQLLQYDDVLRQQREVIYKQRQEVMESENLRGIIEGMMKSTVERAVALHTQEEIEEDWNIKGLVDYLNTNLLQEGDVKEEELRRLAPEEMSEPIIAKLIERYNDKEKLMPEEQMREFEKVVVFRVVDTKWTEHIDAMDHLREGIHLRAYGQIDPLREYQMEGFAMFESMIASIEEEISRYIMKAEIEQNLERQEVVQGEAVHPSSDGEEAKKKPVVKGDQVGRNDLCKCGSGKKYKNCCGIGK,not soluble
5,ESIQRPTPINQVFPDPGLANAVKQNLGKQSVTDLVSQKELSGVQNFNGDNSNIQSLAGMQFFTNLKELHLSHNQISDLSPLKDLTKLEELSVNRNRLKNLNGIPSACLSRLFLDNNELRDTDSLIHLKNLEILSIRNNKLKSIVMLGFLSKLEVLDLHGNEITNTGGLTRLKKVNWIDLTGQKCVNEPVKYQPELYITNTVKDPDGRWISPYYISNGGSYVDGCVLWELPVYTDEVSYKFSEYINVGETEAIFDGTVTQPIKN,soluble
6,MKLSKDTIAILKNFASINSGILLSQGKFIMTRAVNGTTYAEANISDEIDFDVALYDLNSFLSILSLVSDDAEISMHTDGNIKIADTRSTVYWPAADKSTIVFPNKPIQFPVASVITEIKAEDLQQLLRVSRGLQIDTIAITNKDGKIVINGYNKVEDSGLTRPKYSLTLTDYDGSNNFNFVINMANMKIQPGNYKVMLWGAGDKVAAKFESSQVSYVIAMEADSTHDF,soluble
7,MAQQETPQDKRRRHARVDNVIYANFGAKTTVRTEPEAPEIVESRNFSPVALRIRDLATQEADAGRLKRGRDYARSGHVLNVKFGNSLITADVAGSQNLPFQVSIAFPYLSTDGLSQITQYIAASPDGLNAARHGQLSEDILDLLLGTQVTFRCDCPDHVVCCKHSVAVVTVASEKVEADPLLAFRLRGLDLAQLEQAVTMQARAASTQDLKERFWQGRDLPSLPEPKIAPALDDSDASLLHKAMRLVSYTNIDELRAVSDIEDIYYHLTHEKG,not soluble
8,MGSDKIHHHHHHRDMEIGDSGNVEIEMGEAAFVLKTSLSSLETKSLSDAGTLPASMDEAEINNCTLIFFEGTQVSSIMEGLFVNKENYIVKTKDGTKDDWAKVILKVKKPSPYSVMVIANSSKSFAGCQSENNIKDIIQDDKDALVKVGKMDISFDTDFAGYPTIAEALGKPLEIGAIPLSQLTARIELAEFNVSGFQGASVKEKVTVTGVDLLNLNPESYTINEQTHKNATYLSESKTCNVEVYNGVSDLPSTYSFVDNKNLLSFYSFRNLAKAESDQVKMQVRFKIGNSNEERTTRPFVINKEGNILHGVKSGYVYRLVVNMTIIGDKVETELLCYTRDWLNNTISIPMEDN,not soluble
9,MGSDKIHHHHHHLRIEQKLWRENTGWSDLSPQVDGLMPQLLIVFGTRKYLQEEVRFEEIKGFYPGAHIFGCSTAGEICATNVFEDALAITALEFEHTRIESRQIHLSQVQNSFQAGEYLASSLTHDDLSHVLVLSDGLHVNGSELLQGLTSSLPPGIAITGGMAGDGVSFEETLVFLDAPPTPDTIAVLGFYGNHLRVGYGSMGGFDPFGPKRLITRSAANVLYEMDGRSALELYKKYLGEHAEGLPATGVFFPLSISGEEVAESLVRTILAVNEEEQSLTFGGDVPTGAYARMMKANLDRLIDGAVTAAESILSVVNNASPELAILISCFGRRSILKQRTEEEVEAVSDVFGSGCMLTGFYSYGEISPFKPGEKPEFHNQTMTITTFREV,not soluble
10,MQLDIDGLKVLFPYDYVYPEQVLYMKEVKKALDARGHGLLEMPSGTGKTVSLLSLVLAYMISYPDKLDKLVYCSRTIPEIEKCVEEMKVLYDYWEKETGQPVAKITVAMSARKNLCVNEPVAALRFGNTVDSACQKLTASSARQKRAEDPTLEACDYFENFEAKSVPMQNGVWNLVKICEFWGTDKIEIFREKIQEI,not soluble
11,GSLLKPARFMCLPCGIAFSSPSTLEAHQAYYCSHRI,soluble
12,MLPSTSKSVEVNENSEEPIELEENVIVVTGDEIQAEIAVVDGEEVIFADDDEYIEYDPLSIANDRNAVYDIYQPHESENGTFMCKICMRTGKNTEYEDRSTFVAHRYKCHGSFNNNVMCPLGDCREVFASLYTLRRHLSQQHELPIEIHLQSFVNIGEFEKFRHLVELASGCRFMMHTKQPKYRRQVMHCSKSEHKLVLQTQKHRLPRERMLKEGSACPSVISYRVESSSGEVHTFMQLYHIGHAPDTESQNSNADNARPMDIVFPIKPACWANHPMQYVQIDVHEMPTSIYGNKIYDNILIVTCLKTRFLWAKPLFECTRTAIGRILNSIFNEYGVPEGFSTSFSPTYIRDTIKSLESVYAVEIREVWNEPLPYNCLERWVLELAQNELGTRNRWVEQLQFLVMEYNQKPIPDRMETPFERMFNRKAPNLYHNGDNQEIIHDKYISYHSELRNEEEGVENRLNTSFEPGRKVFLRKGITKPRRGNNTQYYFGYIGEVDPSNPYYPFKVHYTSSDSPWPSERNIYAWVSVFDLLPTIHEISEMSMTSKKVSIAGLLCSCMGIESSQKYDLTAMGDIARESSRCLLFRNCLCTNQMSRFCCKLVGREHCRFHSVYPENDESYAKMDAALSSFIAYNKDSSKEAEKDLQDSTPIEQILNEVGRRRLESEITVEDPEDLAPPILEPMEPTERHLDTEEEEEEPNQIPMASEHIDIEGVDEEEIMEHSVNAISEEILFEYADDKRDDGPSTPKRGRRRKSPSESAGKKKKLSNNDEFVESTVSRRSSARRTIRPKNLDDYVE,not soluble
13,MGSDKIHHHHHHMSPPVRPVDHLIPEGAMTSFFDFAISQLPAATADRRGPAPDDIDAMLRRDSFAAALRLLAGSFIALYEGSPEMTTLFATRQSRLLCHALLALYFQKSTAEEGEIALTREDFGHLALRHGLASDRVAYVFFKEALKRGLTRPVDATEDQATGVVPSPPALAMLAQWYDVHFQALDLLDEGFRASRFIQRSETTLPHIHPHVSRAFLSHPEVRCPGPLSIIFNWFDAGGLLMDRLIAGIDRELPAEQGRRFTDVQTVTQLATSLSLSRSHVGRKLAAAELIGGIGWSGRRGRSALWISQGFYEEYARTQARKLLILDEALIGFV,not soluble
